± gives the uncertainty stated by the source.
assay: amyloid nucleation score (Sup35N fusion, yeast selection) (log enrichment); library NNK3; higher = more nucleation; inactive = no reads after selection
Outline: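 After 24 hours of induction with 100 μM copper sulfate, psi-negative yeast expressing peptides of 20 random codons fused to Sup35N were grown for 7 days at 30°C on medium lacking adenine and uracil. Input and output plasmid inserts were sequenced with Illumina, and sequences with under 100 input reads were discarded. Scores for nucleation are the DiMSum log enrichment of output over input reads, centred on the mode score of non-aggregating sequences.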

Substance | amyloid nucleation score
SHRGDAVLVFCLVCLVILDG | inactive
SHRVNWFLCSCLESYFMCNT | -0.522 ± 0.78
SHSLS | inactive
SIAIHSMLKYNVPLVSRHSG | inactive
SIFAVSGLSVF | inactive
SIFCGCLVLLTGNYLLICIS | 1.13 ± 0.17
SIFHLTSKVYISDWFC | 2 ± 0.088
SIFIYDVPIVSRWRIFGKQS | inactive
SIFSSCLSPYSFSYIKLLSC | 0.504 ± 0.26
SIGNAIS | inactive
SIGNCIFYTMAVFQWSTYTL | inactive
SIGQHWLGS | inactive
SIGVFRYFVLVLHYWYGISS | inactive
SIGYDCLQSGAFKSLHTMAL | inactive
SIHCIYSWR | 1.27 ± 0.12
SIILGCCLWLHLMH | 2.08 ± 0.059
SIIVTVQLWYVGV | 0.422 ± 0.36
SIKLGILEMCKA | inactive
SILKFNQSLQSLFSNYYHLC | 1.14 ± 0.097
SIMTSFRPFPTWRCG | -0.563 ± 0.57
SIRLIIKELDGNDTCIGVSG | inactive
SISPVSPGIRAKITTAEMVR | -0.201 ± 1.1
SITYCWLHR | 1.77 ± 0.078

Substance | amyloid nucleation score
SKCIKLFNFNVSCFQTSSLL | 2.29 ± 0.092
SKLWSYWDLSWLTLKVGWLR | inactive
SKRARVKWSTQPHFVRYLLE | inactive
SKSKYHFYHHGEAWSTLVVV | inactive
SKSQSSHHDSYSLWTM | inactive
SLAKFNMNYGTYGLEGFSVW | -0.209 ± 0.81
SLAVGLLNCLL | 2.17 ± 0.075
SLCVVGP | -0.107 ± 0.6
SLESWFVTRRCSRYESTFMS | inactive
SLEVLIYDGKCMSCDDVVNG | inactive
SLFFN | inactive
SLGTLISLPYTSA | inactive
SLIDHYLSDLSKKS | inactive
SLILALFSGISSDF | 0.122 ± 0.37
SLKEVSFWSASRDDGGDRMQ | inactive
SLKGVITSFVRNVFFNRAMY | inactive
SLLYEEPEVLINNSSGSAS | inactive
SLMCLLVRLLIKN | inactive
SLMKGCTLLDSFRLRKP | inactive
SLMYKWKEGSQDGYCWAW | 0.824 ± 0.28
SLNKHR | inactive
SLNMLDFFYSLFGVCNKTVL | inactive
SLNWVGVCNMKSPVNSTQSI | 0.329 ± 0.67

Substance | amyloid nucleation score
SLSFIECLMELNNLVYYLGS | inactive
SLSLSIIRAVDFWDMVRGLN | inactive
SLSVVMLLKVVVRPSNWWEG | inactive
SLTSWGRMMSWVPCSKELRQ | inactive
SLTVKFSLLKGESQVDHFVS | -0.158 ± 0.85
SLVIAIHRAFLFMAGRSRVG | inactive
SLVSFFCHVGNKWFNHDFPI | inactive
SLVSYINGKVKNVPCKSCCY | inactive
SLVTRGLPVCRFRSDSDYSI | inactive
SLWSVEDSGYKC | inactive
SLWYIRSLLCFEVLSLFHLL | inactive
SLYRGYLFGCGQFDNIVYEL | inactive
SMANFTAETSDIRINFIVSM | 0.779 ± 0.14
SMCMRCLSVSKKKAQKSDEP | inactive
SMCRTPILQPIAVQNVSMGR | inactive
SMFRSRFLKVRDVSTTSQCA | inactive
SMFYMRFHVQ | inactive
SMKFC | inactive
SMKGNSWF | inactive
SMLVELVFSLQTQSSGSSGR | -0.059 ± 0.43
SMNNWGFDNICSQVCPLAAM | inactive
SMNPIECYNAHLVSSGFWVQ | inactive
SMNRV | inactive

Substance | amyloid nucleation score
SMQKGGK | inactive
SMRLVAWYW | inactive
SMWYASFTYESYLCLFKESR | inactive
SMYLYVAWARVLNDLDNID | inactive
SNAFSGLRQLPPSNDSLCKG | inactive
SNAMMGSRRIGLMGYAVRVL | inactive
SNCFPLSFWIR | -0.88 ± 1.3
SNDYCRGCVCLDSGMNVCVA | inactive
SNFLGNQRMLRSAQIPRMRL | inactive
SNHIDAVNHDGHSHPYHTTR | inactive
SNIGVGKTYHRCTFFFWLIC | 0.989 ± 0.24
SNKECLLGIGWFASYKVIPT | inactive
SNKSHVCYFSIEFVLISGLS | inactive
SNNLEGVLSVCDFVF | inactive
SNPLQGDSLRSVLSCNSIYF | inactive
SNSHVTKDLGVCRGLATCRG | inactive
SNSVIW | inactive
SNSYYWPNLYVFSTVNMVSD | 2 ± 0.098
SNVGSDDTFLVLLHSHSRSG | 0.72 ± 0.49
SNYFTFYLFNVRGIWGFADC | 2.56 ± 0.07
SPAHGLGFDMKMVVFMFGDR | 1.54 ± 0.12
SPDTARTH | inactive
SPHLLDWSKIAFLVSHMPHS | inactive

Substance | amyloid nucleation score
SPICNEEYNNVDTCILWGYF | inactive
SPLLNPGPSWF | inactive
SPMRLLGSSFGQ | inactive
SPQGTVCNQSIFVALPLRVG | inactive
SPQVLDRWDQFKWKFVFRGS | 0.584 ± 0.13
SPVIKRYCILM | inactive
SPVMPMMFGNKRVPLITDLR | inactive
SPVSNYYDIKVVRDVSGCFT | inactive
SPWYLNVAIGTAKGCLSFID | inactive
SQDFKLPSLSTFYRHGMEPS | inactive
SQGGFRNMWR | inactive
SQLRP | inactive
SQSLPFVCA | inactive
SQWIIGFTVTCFSSCKILKM | inactive
SRALDGYKVPRFWIVRARGR | inactive
SRCFWQSLEVTVILGSCINT | 1.64 ± 0.11
SRCGSIGGMKG | inactive
SRCPMADCMRKPRGGCSVGR | inactive
SRDFKIGCWLKIRSVIDPVW | inactive
SREVSLLKWMVIILCLW | inactive
SRFGMHKDTKMWSSRCRCVR | inactive
SRFKFTAESLISVTVERLFL | 0.626 ± 0.21
SRFNMFNLS | 0.163 ± 0.34

Substance | amyloid nucleation score
SRGEKNSNFTWTNDFDFFRV | inactive
SRHTICHKQNSCRKVLSPPH | inactive
SRKVYEPKVPLAVSGCRMNV | inactive
SRLNWSRRWSLVSQNARRTS | inactive
SRNLPVLTYLFLVKKWEWYP | inactive
SRNPYLYQIHVYKVTGFLCC | 2.51 ± 0.062
SRPVVRVINYYELGHIKVMS | inactive
SRSPNFQKFLHCMTTSN | inactive
SRTSYYMPTIPCMMPMN | inactive
SRVGGISC | inactive
SRVLILM | inactive
SRVRNDWYRVKVMGANVVGY | inactive
SRWIGYSFSGGSGGFVGRKA | inactive
SRWVIGHVNTGSGGLESDKR | inactive
SRYIRGTLCRAVSVNRPHVH | inactive
SSAELV | inactive
SSAYHSHDSSRTKRNRSGRM | inactive
SSCKWLFTSSHPSHPEAS | inactive
SSCMAFIMGWKYITMD | inactive
SSDCMDDRCCDNCDSSRLLW | inactive
SSFGFKAK | inactive
SSFLWTVWGFSNNPCCSSVA | 2.46 ± 0.051
SSFTKLPFL | inactive

Substance | amyloid nucleation score
SSGHMICIYYQLVHIIVRLC | inactive
SSGLICF | inactive
SSGNFA | inactive
SSGPLALVL | inactive
SSGSPFNCWHSLHCSSRPFK | inactive
SSHIRWHGN | inactive
SSKMLTLMWMVGPPLSTDGS | inactive
SSLAGMQEDC | inactive
SSLIFLFDGKHRVLIYNLSN | 0.482 ± 0.47
SSLIWNLSCELLTWLHVRRW | -1.3 ± 2.5
SSLMRIHLPLVYQ | inactive
SSLPRPLVFRSLFVWREYIQ | -0.06 ± 0.77
SSLQHSAW | inactive
SSNNQMWTELITYCLRCAWV | inactive
SSNTTMRINSVRH | inactive
SSPRSMASYQRSKIRWVSEF | inactive
SSSLCASWHPYLKWKSYRMF | inactive
SSSLVRCHG | inactive
SSSRCITLLVSIMVPISATC | inactive
SSTHIWGVQALGS | inactive
SSVENFLNVCNHLDES | 0.389 ± 0.25
SSWLLLAGKIW | inactive

From the supplement of paper PMC12042874
